The data set in a line: amyloid nucleation score (Sup35N fusion, yeast selection) (log enrichment); library NNK1; higher = more nucleation; inactive = no reads after selection. Put shortly:
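Plasmid inserts were Illumina-sequenced at input and output from psi-negative yeast expressing Sup35N fused to peptides of 20 random codons. The yeast were induced with 100 μM copper sulfate for 24 hours and grown 7 days at 30°C on medium lacking adenine and uracil, and sequences with under 100 input reads were excluded. Nucleation score is the DiMSum log enrichment of output over input reads, centred on the mode score of non-aggregating sequences.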

This note sets out measurements from the supplement of paper PMC12042874.

± gives the uncertainty stated by the source.

For the substance KRLGWSSVFRLARVERVLRS, the amyloid nucleation score is -0.929 ± 1.9.
As for MGMGNVYAIQFCPMILWD, the figure is 6.783 ± 0.057; as for IPMLFMSLRV, 0.171 ± 0.26; as for SYICLHYFCIQ, 5.745 ± 0.055.
Regarding LRKALRLDVHLGTNLYLNSF, the amyloid nucleation score was found to be 0.542 ± 0.75.
HLGTTNMNVFNVG returned an amyloid nucleation score of 1.79 ± 0.082.
As for NFMIMKSCDRSSLCHFMSYC, the figure is 7.436 ± 0.069.
The value for CIMPMIGKYVGVFSSGSSIS was “inactive”.
As for CFLETMDFGH, the figure is -0.472 ± 1.2.
VMKGSRHVRDKRALYYDILR: the amyloid nucleation score is -0.308 ± 0.59.
In turn, ELRCLQVINGLASLSASVWW yielded an amyloid nucleation score of 0.067 ± 0.64.
As for YLTGVYNWGMCKTCFPRDWG, the amyloid nucleation score was 2.65 ± 0.096.
The value for IIRDSFKNRPETAYTHRTWD was 1.13 ± 0.15; that for NGTAVCLVRSLVYAHHGRQG was 0.481 ± 0.38; that for YMGPFVPFSRTTAYNVSTFK was 0.42 ± 0.79.
The value for YYTYDGVGSLICTCRFTRVV was -0.356 ± 0.49; that for DLDSVGTVMGDQGDFS was -0.416 ± 0.55.
The value for IFCITGAGLLDRCSSRTLAS was -0.175 ± 0.41; that for RPNSYGSLWRERIGLIYTYE was 1.33 ± 0.79.
As for GVTHKDMSNDYFMGD, the amyloid nucleation score was -0.285 ± 0.47.
The substance MQTLPIR came in with an amyloid nucleation score of -0.519 ± 0.46.
RILTDLRKICADCNRILPFW came in with an amyloid nucleation score of -0.557 ± 1.2.
In the case of DFILQMLL, the amyloid nucleation score came to 0.401 ± 0.3.
The value for MSVLALVPGYLSA was -0.088 ± 0.46; that for FFLVRMCKSRDVTVTVGGSH was 1.53 ± 0.14.
FHTRVKEWVGPAFLGSANLG showed an amyloid nucleation score of 0.25 ± 0.5.
The value for MISMFSLFLIRMIM was -0.052 ± 0.54; that for RLYSYVFSGSPHIGWHLCSM was 3.82 ± 0.11; that for NAFQRV was 0.6 ± 0.72.
The value for DIFHSLILHMDMYEG was 0.811 ± 0.85; that for VIDRTEGTYCREITTFHYYN was -0.378 ± 0.62.
The value for VSCMRDIIRLCYQQTPICKF was -0.272 ± 0.84; that for LRVYPGTYLTNRETRSRSCI was 0.828 ± 0.43; that for MGFDLSRRTCLYYLVTLSW was 0.014 ± 1.1.
Take GIISFANRQSF: the amyloid nucleation score turned out to be 7.944 ± 0.044.
The value for SVPVSTTDWNSGFLWAGGCS was 0.513 ± 0.52.
As for YFSGLKDFILISNQNGSS, the figure is 2.66 ± 0.2; as for GAKEDERSNWSVVNMLGREL, -0.341 ± 0.39.
For SADPSNYRERIFLKLMKLHG, the amyloid nucleation score is -0.514 ± 0.37.
As for DFLNWWCRCVTFNSGRSGFV, the figure is 0.392 ± 0.6.
ISPLSQYARLVRQVSRAWYD returned an amyloid nucleation score of 0.569 ± 0.87.
Turning to VTSYFKIRLCFPRGMASCTR, the amyloid nucleation score worked out at 3.37 ± 0.19.
As for ILICQCLMLACGRVFSFYLV, the amyloid nucleation score is -0.328 ± 0.57.
RYNCVDV came in with an amyloid nucleation score of -0.765 ± 0.52.
As for RDNFEMFSPAAKYALFASGT, the entry is “inactive”.
The value for GLLETYDWAVQWTGHLEC was 0.168 ± 0.89.
Regarding DLHWILNHTNGACFQWGQPA, the amyloid nucleation score result was “inactive”.
RMLLENVSVKRR returned an amyloid nucleation score of 0.678 ± 0.66.
As for SSIMHSG, the figure is 0.925 ± 1.1; as for CCDDIRTQDLALRAQIP, -0.21 ± 0.32; as for LWLIVEDSVYFVGMQGHIFN, -0.381 ± 0.39.
The value for FCMTMRSARCGHLSMYCCFQ was 1.8 ± 0.4.
Take DYTRC: the amyloid nucleation score is 0.391 ± 0.97.
FLSGYGSCLELANVIRWLEN yielded an amyloid nucleation score of 1.19 ± 0.69.
As for FTYRGYSDQLMVSLLSLLSE, the figure is 1.68 ± 0.48; as for CYTLFAVVNMLLVFNWQCRD, -0.34 ± 0.36; as for RRLKETKT, “inactive”.
As for VCYGVLPFEEWKMSFSACVT, the figure is 0.369 ± 0.37; as for MIRQYDCSVFKCRERYFWAF, 0.675 ± 0.85.
As for WLHNIQRYTFFSKLRNQRRR, the figure is -0.442 ± 0.76.
With VETIRQINVHVSGVDIHFWD, the amyloid nucleation score stood at 6.872 ± 0.045.
As for WEPTR, the figure is 0.174 ± 0.59.
The value for KDSFLMGGLFFMTAAWVSPR was 1.54 ± 0.27; that for SSRFVWIASKINILYNFQTY was -0.403 ± 0.7; that for ATREQDFWWFDER was -1.48 ± 1.2.
The value for KIRLQVNSFMFVTPWAHFMV was 4.55 ± 0.052; that for FWRKENGYWLGFMPLVREGT was 0.247 ± 0.35; that for LGQGRLYILYFMSMYLDMMG was 0.748 ± 0.47.
With VGYGASMYYYFFWHKFFLVF, the amyloid nucleation score was 0.037 ± 1.
As for MLLWSVSLNKKKTLKECRRQ, the figure is 1.16 ± 0.67; as for QYGWCIAYSLELCSLSPNLI, 0.326 ± 0.37.
Take SFKWLGTFRYSYTKSTEHVW: the amyloid nucleation score is -0.534 ± 1.2.
As for ENWATFEEYPT, the figure is 0.243 ± 0.3; as for ARWCEGRYSFILNKQQKLAK, 0.662 ± 0.49.
Regarding VFKESGSRGFVMYTGILSCQ, the amyloid nucleation score amounted to 0.507 ± 0.68.
As to FIRVMRA, the amyloid nucleation score result was “inactive”.
YCEYILGFCFEMYAFGNRSP returned an amyloid nucleation score of 0.573 ± 0.62.
In turn, GFTYTC had an amyloid nucleation score of -0.915 ± 1.1.
Turning to VSEDVFLWVKLSLTAGSEGR, the amyloid nucleation score was -0.973 ± 0.4.
With TIVRGSNYRPPVWPSDY, the amyloid nucleation score is -0.535 ± 1.1.
For HESGRRAIYS, the amyloid nucleation score was -0.019 ± 0.29.
Consider AMRLMDILCLIVCPHEYMWP, for which the amyloid nucleation score was 1.54 ± 0.17.
The substance PLNHNSY came in with an amyloid nucleation score of 1.47 ± 0.51.
Consider KFRSKLWNYFFACVEPATHP, for which the amyloid nucleation score is -0.013 ± 0.72.
Turning to IRRSIGVRAPWTFSEEDGSS, the amyloid nucleation score came out at 0.6 ± 0.79.
CLSCSNICFFIHSVNWDVFS showed an amyloid nucleation score of 5.27 ± 0.11.
In the case of GHLQGPLSTLIHDW, the amyloid nucleation score turned out to be 0.564 ± 0.47.
As for FDSQDSISFGDGTFKSVWPM, the figure is 0.177 ± 0.31; as for FVCSVFKSYCKSRVFFARAT, -0.025 ± 0.28; as for TSGLSGSESKESTDKCCIEC, 0.713 ± 0.92.
Substance PFLYIDSF returned an amyloid nucleation score of -1.2 ± 1.9.
The value for RVNLKGWKRHSIRRSNMYRV was “inactive”; that for SEQSMTY was “inactive”.
As for SSSKGSMENYISYRSL, the amyloid nucleation score is -0.703 ± 0.32.
The value for QNMLFTIKRFSNQPDTVVFE was -0.202 ± 0.49.
Turning to LTSFETFQNFNMAVMYAR, the amyloid nucleation score was -0.236 ± 0.65.
As for CSLILALPN, the figure is 0.951 ± 0.6.
The value for IRFKRFGADAHGNKYNSRWI was 1.13 ± 0.32; that for LQFLSGYNC was 0.293 ± 0.49.
As to YKFCVILSNGRQCVMALVRP, the amyloid nucleation score stood at 0.286 ± 1.2.
The value for VCKWNSSIFLYNRPSVSAAV was 0.123 ± 0.4; that for ENRTSNFPYKVR was 0.421 ± 0.26; that for QTGRFDIVSAS was 3.52 ± 0.069.
As for RCDGTQDKCWDKSLLFGERR, the figure is 0.618 ± 0.45; as for LVSLRSIRSRRWCSRQFWSM, -0.111 ± 0.5; as for DFTCIRMNQSFVIRAFGALC, 3.75 ± 0.16.
As for VTRYRTLTRHWWS, the figure is 0.277 ± 0.39.
The substance WSTGDVLVLVKLYYAFMCVI yielded an amyloid nucleation score of -0.819 ± 0.27.
As for RFYKCVLDVNTHLV, the figure is 0.883 ± 0.6; as for LIRREHSRL, “inactive”.
Take MLYDFVDIRECNDILPARGG: the amyloid nucleation score is 0.043 ± 0.35.
Substance SCVLRRNSHRIMDSYPRYGQ returned an amyloid nucleation score of 0.151 ± 0.29.
For the substance RNELTVFGLISPWESVFNLG, the amyloid nucleation score entry was “inactive”.
As for NAFCHAYSI, the figure is -1.49 ± 1.2; as for SYHPLHVCCSSVFRELVIRD, 2.11 ± 0.43; as for RFSTTFYSVAVVYKRDSR, 1.86 ± 0.24.
SGAPRSCFNHSVFRMRASCL yielded an amyloid nucleation score of 0.114 ± 1.4.
With SLYNTLEVNDNKHRVNFLVA, the amyloid nucleation score was 0.652 ± 0.58.
As for PSRATYCRGSMIHLIFDWIT, the figure is 0.955 ± 0.54; as for STWLLGQRRYPRHKERGRAR, 0.101 ± 0.35.
Turning to MFRCFSDTKSNRTFCFMHTC, the amyloid nucleation score is -0.143 ± 0.56.
As for NHCSLFCAFSW, the figure is 1.86 ± 0.67.
As for LNSRHVNSYF, the amyloid nucleation score was 0.869 ± 0.48.
As for GKFSKDKILLVSYHKAF, the figure is 0.886 ± 0.39; as for NKKKSLRWKGTGNGVPLVVQ, -0.399 ± 0.86; as for YFASCRTM, -0.193 ± 0.27.
In turn, YDSRCMAVSFSGSLFSHLLE came in with an amyloid nucleation score of -0.317 ± 0.45.
As for KTRFLKYDNLSWTDKSNWVL, the entry is “inactive”; as for LPSIYSFSSCNVVEDEGQM, -0.685 ± 1.2; as for NFGLPMYYFANDLESTDVVS, -0.115 ± 1.4.
As for EHGNVACRWDTHISLVWCHF, the figure is 7.304 ± 0.057.
CLCARML registered an amyloid nucleation score of 0.542 ± 0.67.
Turning to RDDLNTTWFLGRSTLGLMLW, the amyloid nucleation score came out at 0.168 ± 0.6.
In turn, AVGKYLWASVGIAFDRQSIM displayed an amyloid nucleation score of -0.837 ± 2.4.
As for LSRSSWQQARICARVHGLGG, the figure is 1.05 ± 0.58.
As for NISVVGSSING, the amyloid nucleation score stood at 0.713 ± 0.23.
Turning to SHLLLHSLWSDPGIIVDLYT, the amyloid nucleation score entry was “inactive”.
As for SRPQLDKTLFGLVA, the amyloid nucleation score is 0.771 ± 0.62.
As for LGYRPWFWTTAFSSLADLAR, the figure is -0.907 ± 1.3.
